The results in this text go back to article PMC12299175 (Vaccines, 2025).

Some results are limits rather than exact numbers.

For test [1], the target named is Myc-tagged S fragment of human coronavirus (HCoV)-OC43 (HCoV-OC43 (GenBank L14643.1), UniProt P36334). As to the kind of experiment: Western blot. The settings on record: one partner purified.
Test [2] deals with T1, Myc-tagged S fragment of MERS-CoV (MERS-CoV, isolate of GenBank KT357812.1, UniProt A0A024E0Q9).
T1 construct: source: 293FT cells, transiently transfected, in lysate (RIPA buffer)
In words: Western blot. The settings on record: one partner purified.

Test [3] deals with Myc-tagged S fragment of bat coronavirus (BtCoV)-HKU5 (BtCoV-HKU5 (GenBank AGP04943.1), UniProt S4X425). In words: Western blot. The settings on record: one partner purified.
Test [4] concerns the target Myc-tagged S fragment of mouse hepatitis virus (MHV) (Mouse hepatitis virus, ATCC VR-764 …, UniProt P11224). As to the kind of experiment: Western blot. The settings on record: one partner purified.
Test [5] deals with T2, synthetic peptide of stem helix (1141-1161) of SARS-CoV-2 WT S with biotin at C terminus (SARS-CoV-2, UniProt P0DTC2).
T2 construct: source: synthetic peptide
As to the kind of experiment: BLI; […] (Gator Bio); antibody at 1 to 100 nM in 100 mM HEPES, 500 mM NaCl, 0.005% Tween20, 0.1% BSA; […]. The settings on record: both partners purified.

Myc-tagged S fragment of human coronavirus (HCoV)-OC43, sequence (P36334 whole entry, looked up, the tested form may be a part, one chain of several): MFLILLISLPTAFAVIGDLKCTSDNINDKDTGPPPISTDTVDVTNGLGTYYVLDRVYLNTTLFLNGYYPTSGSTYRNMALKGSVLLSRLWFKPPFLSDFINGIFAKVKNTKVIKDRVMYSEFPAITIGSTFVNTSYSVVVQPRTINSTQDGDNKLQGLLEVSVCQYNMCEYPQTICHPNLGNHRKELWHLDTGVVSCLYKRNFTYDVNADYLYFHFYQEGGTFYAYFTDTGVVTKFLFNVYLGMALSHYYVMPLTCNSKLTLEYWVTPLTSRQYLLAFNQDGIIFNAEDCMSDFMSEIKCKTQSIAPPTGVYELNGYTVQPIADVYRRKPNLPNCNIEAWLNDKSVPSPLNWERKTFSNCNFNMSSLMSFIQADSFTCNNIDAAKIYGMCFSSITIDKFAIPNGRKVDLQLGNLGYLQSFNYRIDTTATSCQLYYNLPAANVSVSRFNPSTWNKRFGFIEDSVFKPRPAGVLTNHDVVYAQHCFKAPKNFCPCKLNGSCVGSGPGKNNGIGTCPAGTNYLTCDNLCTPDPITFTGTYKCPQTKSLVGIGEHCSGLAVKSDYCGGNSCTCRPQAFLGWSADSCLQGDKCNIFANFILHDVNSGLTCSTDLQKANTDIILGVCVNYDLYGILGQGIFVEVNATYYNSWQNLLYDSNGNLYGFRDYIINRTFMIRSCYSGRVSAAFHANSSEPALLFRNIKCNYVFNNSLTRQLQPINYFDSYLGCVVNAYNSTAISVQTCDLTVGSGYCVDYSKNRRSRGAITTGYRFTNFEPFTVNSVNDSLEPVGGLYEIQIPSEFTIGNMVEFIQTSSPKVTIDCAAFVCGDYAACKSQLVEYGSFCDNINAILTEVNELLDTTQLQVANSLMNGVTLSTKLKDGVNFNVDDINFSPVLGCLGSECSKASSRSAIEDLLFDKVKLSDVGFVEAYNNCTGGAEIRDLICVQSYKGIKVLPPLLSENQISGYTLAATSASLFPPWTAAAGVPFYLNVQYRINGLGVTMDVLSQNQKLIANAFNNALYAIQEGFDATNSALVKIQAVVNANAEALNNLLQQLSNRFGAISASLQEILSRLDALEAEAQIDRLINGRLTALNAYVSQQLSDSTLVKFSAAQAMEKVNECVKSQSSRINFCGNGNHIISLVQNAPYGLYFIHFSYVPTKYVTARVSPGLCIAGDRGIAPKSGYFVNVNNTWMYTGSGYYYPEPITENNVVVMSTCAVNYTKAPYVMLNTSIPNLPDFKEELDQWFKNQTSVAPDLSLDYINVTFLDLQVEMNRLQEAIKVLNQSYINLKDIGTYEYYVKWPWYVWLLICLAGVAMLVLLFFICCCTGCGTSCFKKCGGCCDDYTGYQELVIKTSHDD
Myc-tagged S fragment of mouse hepatitis virus (MHV), sequence (P11224 whole entry, looked up, the tested form may be a part): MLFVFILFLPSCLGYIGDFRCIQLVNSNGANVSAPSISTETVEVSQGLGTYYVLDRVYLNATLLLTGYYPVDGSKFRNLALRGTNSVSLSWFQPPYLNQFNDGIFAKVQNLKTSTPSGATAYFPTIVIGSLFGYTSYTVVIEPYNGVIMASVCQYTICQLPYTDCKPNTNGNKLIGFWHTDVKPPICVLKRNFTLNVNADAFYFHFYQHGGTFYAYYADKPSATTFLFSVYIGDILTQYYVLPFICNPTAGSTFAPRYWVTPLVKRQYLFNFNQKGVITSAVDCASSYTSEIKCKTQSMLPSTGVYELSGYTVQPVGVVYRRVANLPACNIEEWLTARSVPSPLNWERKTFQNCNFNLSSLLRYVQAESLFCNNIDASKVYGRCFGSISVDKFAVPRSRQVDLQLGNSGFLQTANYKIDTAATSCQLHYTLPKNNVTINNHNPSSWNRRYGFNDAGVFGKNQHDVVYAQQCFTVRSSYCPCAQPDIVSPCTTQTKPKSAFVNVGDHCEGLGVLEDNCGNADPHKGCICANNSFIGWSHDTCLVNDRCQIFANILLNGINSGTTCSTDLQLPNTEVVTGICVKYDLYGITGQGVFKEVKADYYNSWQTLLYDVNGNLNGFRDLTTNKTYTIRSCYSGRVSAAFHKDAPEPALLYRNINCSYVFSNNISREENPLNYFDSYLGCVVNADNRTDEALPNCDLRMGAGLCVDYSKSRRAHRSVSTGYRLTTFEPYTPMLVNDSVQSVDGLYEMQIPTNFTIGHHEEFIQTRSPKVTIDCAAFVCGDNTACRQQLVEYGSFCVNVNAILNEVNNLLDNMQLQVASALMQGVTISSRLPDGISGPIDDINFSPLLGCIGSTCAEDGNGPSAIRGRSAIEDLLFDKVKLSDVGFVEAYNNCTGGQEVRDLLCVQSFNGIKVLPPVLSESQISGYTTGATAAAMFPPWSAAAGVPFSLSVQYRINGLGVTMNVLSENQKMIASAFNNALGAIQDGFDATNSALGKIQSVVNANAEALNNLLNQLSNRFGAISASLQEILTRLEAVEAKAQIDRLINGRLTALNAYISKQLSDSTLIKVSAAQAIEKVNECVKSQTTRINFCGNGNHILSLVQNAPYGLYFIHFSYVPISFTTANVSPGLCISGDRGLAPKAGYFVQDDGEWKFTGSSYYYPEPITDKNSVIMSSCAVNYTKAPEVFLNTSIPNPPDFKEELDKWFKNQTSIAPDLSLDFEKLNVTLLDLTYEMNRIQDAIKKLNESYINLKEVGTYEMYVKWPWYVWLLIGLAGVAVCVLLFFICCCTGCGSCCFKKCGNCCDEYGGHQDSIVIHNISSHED

B1: S2P6 recombinant mAb with human IgG1 constant region (antibody, V domains shown)
VH: EVQLVQSGAEVKKPGASVKVSCKASGYTFTSQYMHWVRQAPGQGLEWIGIINPSGVHTSYAQKFQGRVTLTRDTSTSTLYMELSSLRSEDTAVYYCARGSPKGAFDYWGQGTLVTVSS
VL: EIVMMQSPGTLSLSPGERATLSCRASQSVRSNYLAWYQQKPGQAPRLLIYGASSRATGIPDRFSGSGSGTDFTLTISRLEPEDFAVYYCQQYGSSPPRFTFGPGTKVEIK
notes: also called mAb S2P6
In the case of B1, the binding result in test [1], in test [2], in test [3] and in test [4] was “binds” throughout. In test [5], this molecule gave a Kd below 1 pM.
